Source: the Immune Epitope Database (IEDB)

These sequences were tested against HLA-A*02:01 (assay: IEDB peptide-MHC binding, purified MHC/competitive/radioactivity; ≥ and ≤ were set here for values at or beyond the usual limits of such assays). Details: source organism: Toxoplasma gondii GT1.

Sequence | IC50
ALAALAPSLEV | 1 µM
ALDINLPNV | 0.5 µM
FVLELEPEWTV | 0.01 µM
GLAETEVPV | 0.5 µM
HLMDEAVEV | 0.5 µM
LLSDLSVRL | 0.5 µM
MLYAGAPTTV | 0.1 µM
VMSELEFYL | 0.1 µM
YLFKEGVIVV | 0.5 µM
YLSPIASPLL | 0.1 µM
